From paper PMC5359625, “The Interrelationship between Abscisic Acid and Reactive Oxygen Species Plays a Key Role in Barley Seed Dormancy and Germination” come the findings set out here.

Data set [1] addresses T1, GST-HvABI5 (Hordeum vulgare, UniProt Q8GTR6 1-353).
T1 sequence: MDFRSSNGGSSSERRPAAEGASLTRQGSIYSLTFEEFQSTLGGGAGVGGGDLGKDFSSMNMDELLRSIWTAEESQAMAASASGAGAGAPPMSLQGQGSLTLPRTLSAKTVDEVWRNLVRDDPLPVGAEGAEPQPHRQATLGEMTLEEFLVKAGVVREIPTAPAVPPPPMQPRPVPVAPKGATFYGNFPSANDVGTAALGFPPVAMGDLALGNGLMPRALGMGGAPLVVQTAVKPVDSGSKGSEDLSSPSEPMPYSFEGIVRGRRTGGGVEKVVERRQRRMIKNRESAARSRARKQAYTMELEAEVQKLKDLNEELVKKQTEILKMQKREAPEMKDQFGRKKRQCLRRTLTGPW
The data set can be described thus: EMSA; DIG Gel Shift Kit 2nd Generation (Roche), manufacturer's conditions; buffer, salt, pH and temperature not stated. The settings on record: protein: recombinant; tags: N-terminal GST (pGEX); chain copies: 2; label: DIG; blunt.

Data set [2] deals with T1, GST-HvABI5. The data set can be described thus: competition; 100x molar excess unlabeled competitor vs DIG-labeled N1; DIG Gel Shift Kit 2nd Generation (Roche), manufacturer's conditions; buffer, salt, pH and temperature not stated. The settings on record: protein: recombinant; tags: N-terminal GST (pGEX); chain copies: 2; label: none; blunt.

B1: HvCAT2-probe (HvCAT2 promoter, ABRE) (dsDNA)
DNA 1: CACACACACGCACTACGTTCCGAGCATTGCGTCGCGGTGGGTGAG
DNA 2: CTCACCCACCGCGACGCAATGCTCGGAACGTAGTGCGTGTGTGTG
Turning to B1, the binding result in data set [1] is reported as “binds”.

B2: unlabeled HvCAT2 probe competitor (dsDNA)
DNA 1: B1 DNA 1
DNA 2: B1 DNA 2
Consider B2, for which the binding result in data set [2] is given as “binds”.
